We go through 5 molecules from US20080220450A1, “Population Based Prediction Methods for Immune Response Determinations and Methods for Verifying Immunological Response Data” (Danisco US, Inc., Genencor Division, priority 2004, published 2008).

Sequences and labels used below:
B1: B. lentus subtilisin: Bacillus lentus subtilisin, industrial protease, Swissprot accession number P29600 (protein, UniProt P29600 1-269, looked up)
Subtilisin Savinase: AQSVPWGISRVQAPAAHNRGLTGSGVKVAVLDTGISTHPDLNIRGGASFVPGEPSTQDGNGHGTHVAGTIAALNNSIGVLGVAPSAELYAVKVLGASGSGSVSSIAQGLEWAGNNGMHVANLSLGSPSPSATLEQAVNSATSRGVLVVAASGNSGAGSISYPARYANAMAVGATDQNNNRASFSQYGAGLDIVAPGVNVQSTYPGSTYASLNGTSMATPHVAGAAALVKQKNPSWSNVQIRNHLKNTATSLGSTNLYGSGLVNAEAATR
B2: Amylase: Bacillus licheniformis alpha amylase, industrial enzyme, Swissprot accession number P06278 (protein, UniProt P06278 30-512, looked up)
Alpha-amylase: ANLNGTLMQYFEWYMPNDGQHWKRLQNDSAYLAEHGITAVWIPPAYKGTSQADVGYGAYDLYDLGEFHQKGTVRTKYGTKGELQSAIKSLHSRDINVYGDVVINHKGGADATEDVTAVEVDPADRNRVISGEHRIKAWTHFHFPGRGSTYSDFKWHWYHFDGTDWDESRKLNRIYKFQGKAWDWEVSNENGNYDYLMYADIDYDHPDVAAEIKRWGTWYANELQLDGFRLDAVKHIKFSFLRDWVNHVREKTGKEMFTVAEYWQNDLGALENYLNKTNFNHSVFDVPLHYQFHAASTQGGGYDMRKLLNSTVVSKHPLKAVTFVDNHDTQPGQSLESTVQTWFKPLAYAFILTRESGYPQVFYGDMYGTKGDSQREIPALKHKIEPILKARKQYAYGAQHDYFDHHDIVGWTREGDSSVANSGLAALITDGPGGAKRMYVGRQNAGETWHDITGNRSEPVVINSEGWGEFHVNGGSVSIYVQR
B3: BPN′ Y217L: B. amyloliquifaciens subtilisin BPN′ Y217L, Swissprot accession number P00782 (protein, UniProt P00782 108-382, looked up, variant Y217L)
Subtilisin BPN': AQSVPYGVSQIKAPALHSQGYTGSNVKVAVIDSGIDSSHPDLKVAGGASMVPSETNPFQDNNSHGTHVAGTVAALNNSIGVLGVAPSASLYAVKVLGADGSGQYSWIINGIEWAIANNMDVINMSLGGPSGSAALKAAVDKAVASGVVVVAAAGNEGTSGSSSTVGYPGKYPSVIAVGAVDSSNQRASFSSVGPELDVMAPGVSIQSTLPGNKYGALNGTSMASPHVAGAAALILSKHPNWTNTQVRSSLENTTTKLGDSFYYGKGLINVQAAAQ
B4: ALCALASE ®: ALCALASE® enzyme, commercially available from Novo, Swissprot accession number P00780 (protein, UniProt P00780 106-379, looked up)
Subtilisin Carlsberg: AQTVPYGIPLIKADKVQAQGFKGANVKVAVLDTGIQASHPDLNVVGGASFVAGEAYNTDGNGHGTHVAGTVAALDNTTGVLGVAPSVSLYAVKVLNSSGSGSYSGIVSGIEWATTNGMDVINMSLGGASGSTAMKQAVDNAYAKGVVVVAAAGNSGSSGNTNTIGYPAKYDSVIAVGAVDSNSNRASFSSVGAELEVMAPGAGVYSTYPTNTYATLNGTSMASPHVAGAAALILSKHPNLSASQVRNRLSSTATYLGSSFYYGKGLINVEAAAQ
B5: sTNFR1: soluble tumor necrosis factor receptor 1 (protein, UniProt P19438 30-211, looked up)
extracellular domain: LVPHLGDREKRDSVCPQGKYIHPQNNSICCTKCHKGTYLYNDCPGPGQDTDCRECESGSFTASENHLRHCLSCSKCRKEMGQVEISSCTVDRDTVCGCRKNQYRHYWSENLFQCFNCSLCLNGTVHLSCQEKQNTVCTCHAGFFLRENECVSCSNCKKSLECTKLCLPQIENVKGTEDSGTT
modifications: extracellular domain

The first test relates to CD4+ T-cells and dendritic cells. The test can be described thus: I-MUNE assay: CD4+ T-cell proliferation to 15-mer peptide sets presented by dendritic cells. The test is classed as cell-based, human. Set-up: Structure Value: scale not given here. To be noted: Table 1. The protocol: All peptides were obtained from a commercial source (Mimotopes, San Diego, C-A). For the I-MUNE® assay system described herein, 15-mer peptides offset by 3 amino acids that described the entire sequence of the proteins of interest were synthesized in a multipin format (See, Maeji et al., J. Immunol. Meth., 134:23-33 [1990]). Peptides were resuspended in DMSO at approximately 1 to 2 mg/ml, and stored at −70° C. prior to use. Each peptide was tested at least in duplicate, although for small peptide sets (e.g., Ber e 1), the peptides were routinely tested in triplicate.
Volunteer donor human blood buffy coat samples were obtained from two commercial sources (Stanford Blood Center, Palo Alto, Calif., and the Sacramento Medical Foundation, Sacramento, Calif.). Buffy coat samples were further purified by density separation. Each sample was HLA typed for HLA-DR and HLA-DQ using a commercial PCR-based kit (Bio-Synthesis).
Monocytes were purified by adherence to plastic in AIM V medium (Gibco/Life Technologies). Adherent cells were cultured in AIM V media containing 500 units/ml of recombinant human IL-4 (Endogen) and 800 units/ml recombinant human GM-CSF (Endogen) for 5 days. On day 5, recombinant human IL-1α (Endogen) and recombinant human TNF-α (Endogen) were added to 50 units/ml and 0.2 units/ml, respectively. On day 7, the fully matured dendritic cells were treated with 50 μg/ml mitomycin C (Sigma) for 1 hour at 37° C. Treated dendritic cells were dislodged with 50 mM EDTA in PBS, washed in AIM V medium, counted, and resuspended in AIM V media at 2×10^5 cells/ml.
CD4^+ T-cells were purified by negative selection from frozen aliquots of human peripheral blood mononuclear cells (PBMC) using Cellect CD4 columns (Cedarlane). […] CD4^+ T-cells were resuspended in AIM V media at 2×10^6 cells per ml.
CD4^+ T-cells and dendritic cells were plated in round-bottomed 96 well format plates at 100 μl of each cell mix per well. Peptide was added to a final concentration of approximately 5 ug/ml in 0.25-0.5% DMSO. Control wells contained 0.5% DMSO without added peptide. Each peptide was tested in duplicate. Cultures were incubated at 37° C., in 5% CO2 for 5 days. On day 5, 0.5 uCi of tritiated thymidine (NEN DuPont) was added to each well. On day 6, the cultures were harvested onto glass fiber mats using a TomTec manual harvester (TomTec), then processed for scintillation counting. Proliferation was assessed by determining the average counts per minute (CPM) value for each set of duplicate wells (TriLux Beta). This method is also described in U.S. Pat. No. 6,218,165 and Stickler et al., J. Immunother. 23: 654-660 (2000), both of which are herein incorporated by reference.
For each individual buffy coat sample, the average CPM values obtained in the I-MUNE® assay for all of the peptides were analyzed. The average CPM values for each peptide were divided by the average CPM value for the control (DMSO only) wells to determine the “stimulation index” (SI). Donors were tested with each peptide set until an average of at least two responses per peptide were compiled. The data for each protein was graphed showing the percent responders to each peptide within the set. A positive response was collated if the SI value was equal to or greater than 2.95. This value was chosen as it approximates a difference of three standard deviations in a normal population distribution. For each protein assessed, positive responses to individual peptides by individual donors were compiled. To determine the background response for a given protein, the percent responders for each peptide in the set were averaged and a standard deviation was calculated. SI values for each donor were compiled for each peptide set, and the percent of responders reported.
B1: the “Number of epitope regions” value is on record as 1.
Consider B2, for which the “Number of epitope regions” value stood at 3.
The same measure, in the same setting: in the case of B3 it was 2.
The same measure, in the same setting: then B4, with 1.

The test is the same for the next values; noted with them: Table 1; from compiled responses.
The molecule B1 had a Structure Value of 0.64.
Take B2: the Structure Value amounted to 0.81.
B3: the Structure Value is on record as 0.53.
Still for that read-out and setting: then B4, with 0.72.

The test is the same for the next values; noted with them: Table 1; positive response SI of 2.95 or greater; community donors.
Regarding B1, the Responses per peptide came to 2.24.
Still for that read-out and setting: then B2, with 2.29; and B3, with 3.65; and B4, with 2.16.

Still in this test, the particulars now being: Table 3.
For the molecule B1, the Background % is 3.45%.
The molecule B2 showed a Background % of 2.79%.
The same measure, in the same setting: in the case of B3 it was 3.65%; in that of B5, 4.2%.
The same measure, in the same setting: in the case of B4 it was 2.35%.

Still in this test, the particulars now being: Table 3; SI>2.95.
B1 had a Response/Peptide of 2.24.
Still for that read-out and setting: in the case of B2 it was 2.29.
The same measure, in the same setting: in the case of B3 it was 3.61.
On the same count and under the same terms, in the case of B5 it was 2.9.
B4 came in with a Response/Peptide of 2.16.

The same test, now with this note: Table 3; Stanford and Sacramento donors.
Consider B1, for which the “Structure Value” came out at 0.65.
On the same count and under the same terms, then B2, with 0.81.
On the same count and under the same terms, in the case of B3 it was 0.65.
Same read-out and setting: then B5, with 0.47; and B4, with 0.72.

Staying with this test, now noted: Table 4; number of prominent epitopes.
For B3, the “Prominent Epitope” value turned out to be 2.

Still in this test, the particulars now being: Table 4; parent, dataset of 113 individuals.
Consider B3, for which the “Structure Value” is 0.53.

Staying with this test, now noted: Table 5; background response value.
Turning to B5, the “Background +/− sd” value is given as 2.23 +/− 1.95.

The test is the same for the next values; noted with them: Table 5; determined experimentally.
B5 had a Responses/peptide found of 1.54.

The same test, now with this note: Table 21; parent, I-MUNE assay data.
As to B3, the “SIV (structure index value)” value is given as 0.53.

The test is the same for the next values; noted with them: average percent responders per peptide, +/− sd where given.
B1: the background response is recorded as 3.45+/−2.90%.
Still for that read-out and setting: in the case of B2 it was 2.80+/−3.69%.
For the molecule B3, the background response is listed as 3.62%.
Still for that read-out and setting: then B4, with 2.35%.

The same test, now with this note: compiled responses.
Molecule B1 registered a Structure Value of 0.64.
On the same count and under the same terms, then B2, with 0.81; and B3, with 0.53; and B4, with 0.72.

The same test, now with this note: peptide regions of the protein.
For B1, the “Prominent responses noted at amino acids” value was 160-174.
As for B4, the “Prominent responses noted at amino acids” value is given as 19-33.
